Legend:
[1] = molecular target: T1, human plasma-derived von Willebrand factor (VWF) (human, UniProt P04275 764-2813); assay: SPR; Biacore T100, 25°C; human plasma-derived VWF immobilised on flow cells, FVIII variants infused to normalized capture levels, then human α-thrombin at different concentrations applied and rates of release determined; conditions: both partners purified
T1 construct: von Willebrand factor, human, derived from plasma; Plasma VWF is a multimer; also called human VWF; source: human plasma-derived

[2] = molecular target: T1, human plasma-derived von Willebrand …; assay: SPR; Biacore T100, 37°C; human plasma-derived VWF immobilised on flow cells, FVIII variants infused to normalized capture levels, then human α-thrombin at different concentrations applied and rates of release determined; conditions: both partners purified

B1: BDD rFVIII (recombinant B-domain-deleted factor VIII, ReFacto / Xyntha) (natural protein)
chain 1: ATRRYYLGAVELSWDYMQSDLGELPVDARFPPRVPKSFPFNTSVVYKKTLFVEFTDHLFNIAKPRPPWMGLLGPTIQAEVYDTVVITLKNMASHPVSLHAVGVSYWKASEGAEYDDQTSQREKEDDKVFPGGSHTYVWQVLKENGPMASDPLCLTYSYLSHVDLVKDLNSGLIGALLVCREGSLAKEKTQTLHKFILLFAVFDEGKSWHSETKNSLMQDRDAASARAWPKMHTVNGYVNRSLPGLIGCHRKSVYWHVIGMGTTPEVHSIFLEGHTFLVRNHRQASLEISPITFLTAQTLLMDLGQFLLFCHISSHQHDGMEAYVKVDSCPEEPQLRMKNNEEAEDYDDDLTDSEMDVVRFDDDNSPSFIQIRSVAKKHPKTWVHYIAAEEEDWDYAPLVLAPDDRSYKSQYLNNGPQRIGRKYKKVRFMAYTDETFKTREAIQHESGILGPLLYGEVGDTLLIIFKNQASRPYNIYPHGITDVRPLYSRRLPKGVKHLKDFPILPGEIFKYKWTVTVEDGPTKSDPRCLTRYYSSFVNMERDLASGLIGPLLICYKESVDQRGNQIMSDKRNVILFSVFDENRSWYLTENIQRFLPNPAGVQLEDPEFQASNIMHSINGYVFDSLQLSVCLHEVAYWYILSIGAQTDFLSVFFSGYTFKHKMVYEDTLTLFPFSGETVFMSMENPGLWILGCHNSDFRNRGMTALLKVSSCDKNTGDYYEDSYEDISAYLLSKNNAIEPRSFSQNPPVLKRHQR
chain 2: EITRTTLQSDQEEIDYDDTISVEMKKEDFDIYDEDENQSPRSFQKKTRHYFIAAVERLWDYGMSSSPHVLRNRAQSGSVPQFKKVVFQEFTDGSFTQPLYRGELNEHLGLLGPYIRAEVEDNIMVTFRNQASRPYSFYSSLISYEEDQRQGAEPRKNFVKPNETKTYFWKVQHHMAPTKDEFDCKAWAYFSDVDLEKDVHSGLIGPLLVCHTNTLNPAHGRQVTVQEFALFFTIFDETKSWYFTENMERNCRAPCNIQMEDPTFKENYRFHAINGYIMDTLPGLVMAQDQRIRWYLLSMGSNENIHSIHFSGHVFTVRKKEEYKMALYNLYPGVFETVEMLPSKAGIWRVECLIGEHLHAGMSTLFLVYSNKCQTPLGMASGHIRDFQITASGQYGQWAPKLARLHYSGSINAWSTKEPFSWIKVDLLAPMIIHGIKTQGARQKFSSLYISQFIIMYSLDGKKWQTYRGNSTGTLMVFFGNVDSSGIKHNIFNPPIIARYIRLHPTHYSIRSTLRMELMGCDLNSCSMPLGMESKAISDAQITASSYFTNMFATWSPSKARLHLQGRSNAWRPQVNNPKEWLQVDFQKTMKVTGVTTQGVKSLLTSMYVKEFLISSSQDGHQWTLFFQNGKVKVFQGNQDSFTPVVNSLDPPLLTRYLRIHPQSWVHQIALRMEVLGCEAQDLY
modifications: ReFacto/Xyntha (moroctocog alfa): S743-Q1638 fusion by convention, the same junction as printed for rFVIIIFc; mainly two-chain after cleavage at R1648, with a minor single-chain fraction …
[1]
  thrombin EC50 for release from VWF: 3.3 ± 0.3 U/mL
[2]
  thrombin EC50 for release from VWF: 4 ± 0.2 U/mL

From PMC4240654, “A Single Chain Variant of Factor VIII Fc Fusion Protein Retains Normal In Vivo Efficacy but Exhibits Altered In Vitro Activity” (PLoS ONE, 2014)
